According to the supplement of paper PMC10567573:

B1: KIAA1161 (parent)
chain: FMPAMQFSIPPWRYDAEVVAIAQK
B2: SLC2A12 (parent)
chain: CLLGLGSLVLILSLSYTVLIVGRI

Variants of: B1
Test: protein stability index of a GFP-peptide fusion (GPS, HEK-293T) (PSI 1-6); higher = more stable
Details: c terminus: a fixed tail appended
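Also: lentivirally expressed fusions sorted by FACS into six bins by GFP to DsRed ratio, PSI derived from sequencing read proportions per bin multiplied by bin number.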

Protein stability index: each site, then its substitutions
V19: H 1.56; S 1.48; E 2.42; N 3.31
M2: D 3.16; L 1.46; C 1.97; W 2.09; Y 1.79; K 2.38

Variants of: B2
Test: as above
Details: c terminus: a fixed tail appended

Protein stability index: each site, then its substitutions
L8: P 2.7; I 3; H 2.87; D 4.51
G6: H 2.78; T 2.06; I 2.69; Y 3.29; D 3.1; E 3.33; C 4.32; A 2.43; F 2.27
S7: I 2.45; T 2.51; P 2.76; A 3.86; H 1.81; N 2.72; K 2.01; R 1.8
L2: K 1.76; M 2.96; H 3.48; Q 1.55; C 2.93
I11: D 3.63; W 1.42; Y 1.36; E 4.57
V9: N 1.9; T 2.25; S 3.94; Y 2.23; D 3.2; H 2.07; K 1.27; F 3.79
I20: P 2.85; N 3.97; Q 3.17; L 3.62; M 2.69
L10: W 3.03; K 2.9; T 3.09; N 2.3; C 3.02; S 2.96
S15: N 3.57; Q 1.91; C 4.02; D 2.87; H 3.25; I 3.21; W 1.8
T17: Y 2.3; N 2.91; E 3.32; F 3.38
I24: F 2.09; S 4.47; H 4.96; V 2.79; W 3.02; L 2.31; K 2.5; R 4.47
S13: R 1.87; I 3.33; L 2; D 2.82; F 3.31; N 1.87
C1: M 2.46; N 2.15; L 2.46; I 1.83; R 2.88; K 1.68; W 1.27
L12: N 2.87; T 2.44; P 2.04; V 3.35; Y 3.84; S 1.92; I 1.58; W 3.73; E 3.91; Q 3.11
V18: F 1.87; H 2.43; K 2.98; T 2.93; S 3.07; M 4.12; L 2.48
G22: K 2.08; S 2.04; V 3.25; E 3.84; F 3.4; T 4.65; H 2.75; Q 3.23
L14: F 2.16; D 2.03; H 3.01; E 2.46; V 3.61
L3: T 1.32; E 2.54; R 2.62; N 2.92; K 2.17
L5: W 2.12; Q 2.45; Y 3.19; M 3.94; R 2.84; H 2.6; G 3.97; I 3.48; E 2.46
G4: C 2.73; Y 4.5; L 4.03; F 3.56; D 3.12
L19: R 4.06; P 3.35; W 1.77; V 3.24; N 2.96; H 3.95
V21: C 3.06; E 1.97; I 3.74; Y 3.38; L 2.77; P 3.7; F 4.2
Y16: M 3.02; P 3.53; W 1.91
R23: A 1.68; M 2.33; L 2.88; Y 1.35; I 1.07; C 3.83; K 3.91; T 2.41; F 1.85; E 3.06; Q 2.57
